Data on 125 sequences can be found in the supplement of paper PMC9112550, “Optimization of the antimicrobial peptide Bac7 by deep mutational scanning” (BMC Biology, 2022).

This data set relates to Escherichia coli TOP10. The data set is described as follows: shrunken log2 fold change of peptide-encoding DNA abundance (4.5 h post-induction vs induction); higher = less antimicrobial activity (less host growth inhibition). As to conditions: time post-induction: 4.5 h; library: site-saturation at positions 5, 18, 19, 20.
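Further: peptides expressed intracellularly from a pBAD plasmid library in pooled LB shake-flask culture, induced with 0.3% L-arabinose, DNA abundance read by NGS, three biological replicates, DESeq2 with apeglm shrinkage.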

For RRIRHRPPRLPRPRPRPVQWPRP, the “shrunken log2 fold change” value came out at 0.0118.

In the case of RRIRIRPPRLPRPRPRPTRCPRP, the “shrunken log2 fold change” value amounted to 0.33.

On to RRIRRRPPRLPRPRPRPIRLPRP, for which the “shrunken log2 fold change” value is -0.104.

On to RRIRYRPPRLPRPRPRPAIRPRP, for which the “shrunken log2 fold change” value was -0.0189.

As for RRIRMRPPRLPRPRPRPNYQPRP, the “shrunken log2 fold change” value was -0.23.

Regarding RRIRERPPRLPRPRPRPTEQPRP, the “shrunken log2 fold change” value was -0.00926.

In the case of RRIRTRPPRLPRPRPRPNHMPRP, the “shrunken log2 fold change” value was -0.792.

RRIRWRPPRLPRPRPRPQRAPRP: the “shrunken log2 fold change” value amounted to 0.66.

As for RRIRERPPRLPRPRPRPITIPRP, the “shrunken log2 fold change” value is -0.0388.

On to RRIRWRPPRLPRPRPRPEILPRP, for which the “shrunken log2 fold change” value is -0.0318.

Take RRIRKRPPRLPRPRPRPVPWPRP: the “shrunken log2 fold change” value was 0.572.

Consider RRIRARPPRLPRPRPRPNMMPRP, for which the “shrunken log2 fold change” value was -0.142.

In the case of RRIRERPPRLPRPRPRPWMTPRP, the “shrunken log2 fold change” value was -0.108.

For the sequence RRIRLRPPRLPRPRPRPHQHPRP, the “shrunken log2 fold change” value was -0.109.

Turning to RRIRLRPPRLPRPRPRPYGVPRP, the “shrunken log2 fold change” value was -0.107.

For the sequence RRIRCRPPRLPRPRPRPEYEPRP, the “shrunken log2 fold change” value is -0.108.

Regarding RRIRLRPPRLPRPRPRPIVSPRP, the “shrunken log2 fold change” value is -0.0372.

As to RRIRPRPPRLPRPRPRPVLRPRP, the “shrunken log2 fold change” value was 0.303.

In the case of RRIRNRPPRLPRPRPRPTTAPRP, the “shrunken log2 fold change” value is -0.0817.

Consider RRIRLRPPRLPRPRPRPIGYPRP, for which the “shrunken log2 fold change” value was -0.253.

Take RRIRIRPPRLPRPRPRPVQMPRP: the “shrunken log2 fold change” value was -0.675.

As for RRIRGRPPRLPRPRPRPWFLPRP, the “shrunken log2 fold change” value is -0.149.

For RRIRMRPPRLPRPRPRPQSTPRP, the “shrunken log2 fold change” value was 0.21.

Turning to RRIRDRPPRLPRPRPRPRMSPRP, the “shrunken log2 fold change” value was -0.149.

Consider RRIRSRPPRLPRPRPRPQHHPRP, for which the “shrunken log2 fold change” value is -0.466.

As to RRIRSRPPRLPRPRPRPTNGPRP, the “shrunken log2 fold change” value was 0.0899.

In the case of RRIRMRPPRLPRPRPRPSDGPRP, the “shrunken log2 fold change” value was -0.205.

On to RRIRCRPPRLPRPRPRPKTCPRP, for which the “shrunken log2 fold change” value is -0.211.

In the case of RRIRQRPPRLPRPRPRPFLTPRP, the “shrunken log2 fold change” value was -0.156.

Turning to RRIRLRPPRLPRPRPRPRANPRP, the “shrunken log2 fold change” value worked out at 0.126.

Regarding RRIRMRPPRLPRPRPRPVYYPRP, the “shrunken log2 fold change” value is -0.123.

With RRIRVRPPRLPRPRPRPMERPRP, the “shrunken log2 fold change” value came out at 0.0131.

Turning to RRIRCRPPRLPRPRPRPPYWPRP, the “shrunken log2 fold change” value was determined as 0.279.

With RRIRLRPPRLPRPRPRPLCIPRP, the “shrunken log2 fold change” value is -0.569.

In the case of RRIRLRPPRLPRPRPRPKISPRP, the “shrunken log2 fold change” value is -0.0626.

Take RRIRSRPPRLPRPRPRPPVCPRP: the “shrunken log2 fold change” value is 0.311.

For the sequence RRIRVRPPRLPRPRPRPFKPPRP, the “shrunken log2 fold change” value was -0.132.

In the case of RRIRMRPPRLPRPRPRPIEYPRP, the “shrunken log2 fold change” value came out at 0.048.

Take RRIRDRPPRLPRPRPRPYCIPRP: the “shrunken log2 fold change” value is -0.205.

RRIRCRPPRLPRPRPRPNNIPRP: the “shrunken log2 fold change” value is -0.843.

Turning to RRIRARPPRLPRPRPRPEPMPRP, the “shrunken log2 fold change” value came out at 0.44.

As to RRIRRRPPRLPRPRPRPICFPRP, the “shrunken log2 fold change” value was 0.496.

Turning to RRIRWRPPRLPRPRPRPTSSPRP, the “shrunken log2 fold change” value was 0.23.

As to RRIRIRPPRLPRPRPRPIQRPRP, the “shrunken log2 fold change” value was -0.265.

Consider RRIRFRPPRLPRPRPRPHNWPRP, for which the “shrunken log2 fold change” value was -0.122.

As to RRIRLRPPRLPRPRPRPHESPRP, the “shrunken log2 fold change” value is -0.0598.

For RRIRIRPPRLPRPRPRPVHQPRP, the “shrunken log2 fold change” value is -0.398.

As for RRIRERPPRLPRPRPRPCVFPRP, the “shrunken log2 fold change” value worked out at 0.0387.

For the sequence RRIRYRPPRLPRPRPRPGQVPRP, the “shrunken log2 fold change” value was -0.0686.

In the case of RRIRERPPRLPRPRPRPMRHPRP, the “shrunken log2 fold change” value worked out at 0.0434.

RRIRFRPPRLPRPRPRPDTYPRP: the “shrunken log2 fold change” value is -0.221.

As for RRIRERPPRLPRPRPRPFKHPRP, the “shrunken log2 fold change” value is -0.255.

For RRIRVRPPRLPRPRPRPFRYPRP, the “shrunken log2 fold change” value is -0.0399.

As to RRIRWRPPRLPRPRPRPLRRPRP, the “shrunken log2 fold change” value was 0.587.

Take RRIRKRPPRLPRPRPRPVEIPRP: the “shrunken log2 fold change” value was determined as 0.0372.

For the sequence RRIRVRPPRLPRPRPRPGGCPRP, the “shrunken log2 fold change” value turned out to be 0.261.

RRIRGRPPRLPRPRPRPPLNPRP: the “shrunken log2 fold change” value is 0.789.

In the case of RRIRERPPRLPRPRPRPEWRPRP, the “shrunken log2 fold change” value was 0.334.

Turning to RRIRQRPPRLPRPRPRPDDHPRP, the “shrunken log2 fold change” value is -0.00211.

Turning to RRIRPRPPRLPRPRPRPSPHPRP, the “shrunken log2 fold change” value is -0.367.

Regarding RRIRPRPPRLPRPRPRPWLWPRP, the “shrunken log2 fold change” value stood at 0.0404.

Turning to RRIRPRPPRLPRPRPRPETSPRP, the “shrunken log2 fold change” value was found to be 0.328.

Turning to RRIRGRPPRLPRPRPRPEKYPRP, the “shrunken log2 fold change” value is 0.172.

Regarding RRIRRRPPRLPRPRPRPKDMPRP, the “shrunken log2 fold change” value was -0.0599.

With RRIRDRPPRLPRPRPRPATAPRP, the “shrunken log2 fold change” value stood at 0.722.

Consider RRIRRRPPRLPRPRPRPGCTPRP, for which the “shrunken log2 fold change” value worked out at 0.183.

For RRIRHRPPRLPRPRPRPFHFPRP, the “shrunken log2 fold change” value is -0.403.

In the case of RRIRPRPPRLPRPRPRPKIEPRP, the “shrunken log2 fold change” value came out at 0.0313.

In the case of RRIRNRPPRLPRPRPRPTERPRP, the “shrunken log2 fold change” value was -0.25.

RRIRVRPPRLPRPRPRPCMVPRP: the “shrunken log2 fold change” value was -0.614.

Consider RRIRQRPPRLPRPRPRPCNGPRP, for which the “shrunken log2 fold change” value is -0.0134.

As for RRIRPRPPRLPRPRPRPVCMPRP, the “shrunken log2 fold change” value turned out to be 0.132.

For RRIRCRPPRLPRPRPRPHYEPRP, the “shrunken log2 fold change” value is -0.442.

Turning to RRIRFRPPRLPRPRPRPIWWPRP, the “shrunken log2 fold change” value is 0.617.

With RRIRNRPPRLPRPRPRPEIAPRP, the “shrunken log2 fold change” value was -0.0256.

Consider RRIRARPPRLPRPRPRPEIAPRP, for which the “shrunken log2 fold change” value came to 0.992.

Take RRIRPRPPRLPRPRPRPDIWPRP: the “shrunken log2 fold change” value is 0.144.

For RRIRSRPPRLPRPRPRPVIMPRP, the “shrunken log2 fold change” value is -0.36.

RRIRWRPPRLPRPRPRPPGEPRP: the “shrunken log2 fold change” value was determined as 0.625.

As for RRIRVRPPRLPRPRPRPLQNPRP, the “shrunken log2 fold change” value amounted to 0.0527.

For the sequence RRIRFRPPRLPRPRPRPWTCPRP, the “shrunken log2 fold change” value is -0.126.

Take RRIRTRPPRLPRPRPRPAPEPRP: the “shrunken log2 fold change” value is 0.24.

Consider RRIRQRPPRLPRPRPRPFSHPRP, for which the “shrunken log2 fold change” value is -0.127.

Take RRIRARPPRLPRPRPRPLHPPRP: the “shrunken log2 fold change” value amounted to 0.256.

Take RRIRCRPPRLPRPRPRPMHEPRP: the “shrunken log2 fold change” value is -0.00208.

For RRIRVRPPRLPRPRPRPHNKPRP, the “shrunken log2 fold change” value was -0.63.

Regarding RRIRDRPPRLPRPRPRPGHEPRP, the “shrunken log2 fold change” value is -0.00201.

For the sequence RRIRHRPPRLPRPRPRPGNSPRP, the “shrunken log2 fold change” value was found to be 0.0912.

In the case of RRIRCRPPRLPRPRPRPQAYPRP, the “shrunken log2 fold change” value amounted to 0.0414.

In the case of RRIRYRPPRLPRPRPRPFREPRP, the “shrunken log2 fold change” value was -0.35.

As for RRIRHRPPRLPRPRPRPSKVPRP, the “shrunken log2 fold change” value is -0.146.

Take RRIRIRPPRLPRPRPRPDNGPRP: the “shrunken log2 fold change” value is -0.375.

With RRIRKRPPRLPRPRPRPHVTPRP, the “shrunken log2 fold change” value is -0.0241.

Regarding RRIRDRPPRLPRPRPRPPPLPRP, the “shrunken log2 fold change” value is 0.586.

As for RRIRQRPPRLPRPRPRPWGQPRP, the “shrunken log2 fold change” value came to 0.000222.

Turning to RRIRDRPPRLPRPRPRPWPIPRP, the “shrunken log2 fold change” value amounted to 0.00865.

Turning to RRIRKRPPRLPRPRPRPDVDPRP, the “shrunken log2 fold change” value was determined as 1.8.

On to RRIRQRPPRLPRPRPRPADTPRP, for which the “shrunken log2 fold change” value is -0.128.

With RRIRPRPPRLPRPRPRPPCWPRP, the “shrunken log2 fold change” value came to 0.468.

In the case of RRIRVRPPRLPRPRPRPSCSPRP, the “shrunken log2 fold change” value was -0.338.

Turning to RRIRQRPPRLPRPRPRPMSWPRP, the “shrunken log2 fold change” value was -0.0294.

Regarding RRIRVRPPRLPRPRPRPLESPRP, the “shrunken log2 fold change” value is 0.114.

As to RRIRWRPPRLPRPRPRPECMPRP, the “shrunken log2 fold change” value amounted to 0.623.

RRIRFRPPRLPRPRPRPQITPRP: the “shrunken log2 fold change” value was -0.481.

Regarding RRIRYRPPRLPRPRPRPASGPRP, the “shrunken log2 fold change” value was -0.148.

With RRIRKRPPRLPRPRPRPLFIPRP, the “shrunken log2 fold change” value was -0.291.

As to RRIRGRPPRLPRPRPRPTQIPRP, the “shrunken log2 fold change” value came to 1.38.

Take RRIRSRPPRLPRPRPRPFSMPRP: the “shrunken log2 fold change” value was -0.0498.

As for RRIRERPPRLPRPRPRPSDAPRP, the “shrunken log2 fold change” value is -0.0474.

As to RRIRMRPPRLPRPRPRPVYMPRP, the “shrunken log2 fold change” value is -0.214.

Regarding RRIRGRPPRLPRPRPRPMNVPRP, the “shrunken log2 fold change” value was -0.176.

As to RRIRTRPPRLPRPRPRPTFMPRP, the “shrunken log2 fold change” value was -0.191.

RRIRDRPPRLPRPRPRPCWQPRP: the “shrunken log2 fold change” value is 0.0562.

As for RRIRARPPRLPRPRPRPHPVPRP, the “shrunken log2 fold change” value turned out to be 0.277.

Turning to RRIRARPPRLPRPRPRPKCRPRP, the “shrunken log2 fold change” value was found to be 0.237.

Regarding RRIRERPPRLPRPRPRPVTEPRP, the “shrunken log2 fold change” value was -0.255.

In the case of RRIRWRPPRLPRPRPRPWADPRP, the “shrunken log2 fold change” value stood at 0.0109.

For the sequence RRIRSRPPRLPRPRPRPGWCPRP, the “shrunken log2 fold change” value worked out at 0.0616.

Regarding RRIRGRPPRLPRPRPRPAPFPRP, the “shrunken log2 fold change” value amounted to 0.722.

As to RRIRTRPPRLPRPRPRPHQFPRP, the “shrunken log2 fold change” value is -0.738.

Consider RRIRLRPPRLPRPRPRPWTHPRP, for which the “shrunken log2 fold change” value was -0.207.

With RRIRKRPPRLPRPRPRPCEHPRP, the “shrunken log2 fold change” value stood at 0.015.

On to RRIRFRPPRLPRPRPRPFECPRP, for which the “shrunken log2 fold change” value was -0.0767.

As to RRIRQRPPRLPRPRPRPVNHPRP, the “shrunken log2 fold change” value is -0.212.

For RRIRGRPPRLPRPRPRPEIGPRP, the “shrunken log2 fold change” value was 1.92.
